{
  "source": "ChEMBL document CHEMBL1138079",
  "proteins": {"B1": {"name": "Oxygen-insensitive NAD(P)H nitroreductase (Escherichia coli K-12), P38489 (protein)", "chain": "MDIISVALKRHSTKAFDASKKLTPEQAEQIKTLLQYSPSSTNSQPWHFIVASTEEGKARVAKSAAGNYVFNERKMLDASHVVVFCAKTAMDDVWLKLVVDQEDADGRFATPEAKAANDKGRKFFADMHRKDLHDDAEWMAKQVYLNVGNFLLGVAALGLDAVPIEGFDAAILDAEFGLKEKGYTSLVVVPVGHHSVEDFNATLPKSRLPQNITLTEV"}},
  "key": {"[1]": {"substrate": "NC(=O)c1cc(N2CC2)c([N+](=O)[O-])cc1[N+](=O)[O-]", "assay": "Activity against Escherichia coli nitroreductase"}, "[2]": {"target": "Oxygen-insensitive NAD(P)H nitroreductase NfsB (Escherichia coli) (UniProt P38489)", "assay": "Activity against Escherichia coli nitroreductase"}},
  "data": [
    {"protein": "B1", "values": [
      {"measurement": "Km", "setting": "[1]", "value": 881, "unit": "µM"},
      {"measurement": "Km", "setting": "[2]", "value": 195, "unit": "µM"}
    ]}
  ]
}
